From patent US20230250154A1 (CYTONICS, published 2023)

T1: MMP1 (human, UniProt P03956 100-469, limits assumed)
T1 sequence (looked up): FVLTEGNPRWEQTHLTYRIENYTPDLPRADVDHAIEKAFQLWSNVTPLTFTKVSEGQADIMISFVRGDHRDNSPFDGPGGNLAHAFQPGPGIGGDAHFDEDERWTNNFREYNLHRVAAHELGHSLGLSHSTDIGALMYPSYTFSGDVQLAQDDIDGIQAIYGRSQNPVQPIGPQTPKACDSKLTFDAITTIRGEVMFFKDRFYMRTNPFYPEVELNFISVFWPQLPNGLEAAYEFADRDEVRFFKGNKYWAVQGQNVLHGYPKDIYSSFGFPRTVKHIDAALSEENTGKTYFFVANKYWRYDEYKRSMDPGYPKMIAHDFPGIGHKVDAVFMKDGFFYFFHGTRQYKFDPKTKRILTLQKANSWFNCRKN

T2: Cathepsin G (UniProt P08311 21-244)
T2 sequence (looked up): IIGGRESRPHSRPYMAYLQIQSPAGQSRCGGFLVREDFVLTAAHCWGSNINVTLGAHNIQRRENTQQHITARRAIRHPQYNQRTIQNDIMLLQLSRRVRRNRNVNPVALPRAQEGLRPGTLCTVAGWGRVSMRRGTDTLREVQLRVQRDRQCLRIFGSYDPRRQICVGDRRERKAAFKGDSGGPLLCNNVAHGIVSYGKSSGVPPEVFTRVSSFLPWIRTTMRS

B1: Variant A2M, bait region SEQ ID NO 139 (other)
chain: SVSGKPQYMVLVPSLLHTETTEKGCVLLSYLNETVTVSASLESVRGNRSLFTDLEAENDVLHCVAFAVPKSSSNEEVMFLTVQVKGPTQEFKKRTTVMVKNEDSLVFVQTDKSIYKPGQTVKFRVVSMDENFHPLNELIPLVYIQDPKGNRIAQWQSFQLEGGLKQFSFPLSSEPFQGSYKVVVQKKSGGRTEHPFTVEEFVLPKFEVQVTVPKIITILEEEMNVSVCGLYTYGKPVPGHVTVSICRKYSDASDCHGEDSQAFCEKFSGQLNSHGCFYQQVKTKVFQLKRKEYEMKLHTEAQIQEEGTVVELTGRQSSEITRTITKLSFVKVDSHFRQGIPFFGQVRLVDGKGVPIPNKVIFIRGNEANYYSNATTDEHGLVQFSINTTNVMGTSLTVRVNYKDRSPCYGYQWVSEEHEEAHHTAYLVFSPSKSFVHLEPMSHELPCGHTQTVQAHYILNGGTLLGLKKLSFYYLIMAKGGIVRTGTHGLLVKQEDMKGHFSISIPVKSDIAPVARLLIYAVLPTGDVIGDSAKYDVENCLANKVDLSFSPSQSLPASHAHLRVTAAPQSVCALRAVDQSVLLMKPDAELSASSVYNLLPEKDLTGFPGPLNDQDDEDCINRHNVYINGITYTPVSSTNEKDMYSFLEDMGLKAFTNSKIRKPKMCPQLEQYEMHGPSEDLVVQIEGEGEGEGIPENFFGVEAIPMSIPTEPHTKLRKYFPETWIWDLVVVNSAGVAEVGVTVPDTITEWKAGAFCLSEDAGLGISSTASLRAFQPFFVELTMPYSVIRGEAFTLKATVLNYLPKCIRVSVQLEASPAFLAVPVEKEQAPHCICANGRQTVSWAVTPKSLGNVNFTVSAEALESQELCGTEVPSVPEHGRKDTVIKPLLVEPEGLEKETTFNSLLCPSGGEVSEELSLKLPPNVVEESARASVSVLGDILGSAMQNTQNLLQMPYGCGEQNMVLFAPNIYVLDYLNETQQLTPEIKSKAIGYLNTGYQRQLNYKHYDGSYSTFGERYGRNQGNTWLTAFVLKTFAQARAYIFIDEAHITQALIWLSQRQKDNGCFRSSGSLLNNAIKGGVEDEVTLSAYITIALLEIPLTVTHPVVRNALFCLESAWKTAQEGDHGSHVYTKALLAYAFALAGNQDKRKEVLKSLNEEAVKKDNSVHWERPQKPKAPVGHFYEPQAPSAEVEMTSYVLLAYLTAQPAPTSEDLTSATNIVKWITKQQNAQGGFSSTQDTVVALHALSKYGAATFTRTGKAAQVTIQSSGTFSSKFQVDNNNRLLLQQVSLPELPGEYSMKVTGEGCVYLQTSLKYNILPEKEEFPFALGVQTLPQTCDEPKAHTSFQISLSVSYTGSRSASNMAIVDVKMVSGFIPLKPTVKMLERSNHVSRTEVSSNHVLIYLDKVSNQTLSLFFTVLQDVPVRDLKPAIVKVYDYYETDEFAIAEYNAPCSKDLGNADYKDDDDKGASHHHHHH
B2: Variant A2M, bait region SEQ ID NO 142 (other)
chain: SVSGKPQYMVLVPSLLHTETTEKGCVLLSYLNETVTVSASLESVRGNRSLFTDLEAENDVLHCVAFAVPKSSSNEEVMFLTVQVKGPTQEFKKRTTVMVKNEDSLVFVQTDKSIYKPGQTVKFRVVSMDENFHPLNELIPLVYIQDPKGNRIAQWQSFQLEGGLKQFSFPLSSEPFQGSYKVVVQKKSGGRTEHPFTVEEFVLPKFEVQVTVPKIITILEEEMNVSVCGLYTYGKPVPGHVTVSICRKYSDASDCHGEDSQAFCEKFSGQLNSHGCFYQQVKTKVFQLKRKEYEMKLHTEAQIQEEGTVVELTGRQSSEITRTITKLSFVKVDSHFRQGIPFFGQVRLVDGKGVPIPNKVIFIRGNEANYYSNATTDEHGLVQFSINTTNVMGTSLTVRVNYKDRSPCYGYQWVSEEHEEAHHTAYLVFSPSKSFVHLEPMSHELPCGHTQTVQAHYILNGGTLLGLKKLSFYYLIMAKGGIVRTGTHGLLVKQEDMKGHFSISIPVKSDIAPVARLLIYAVLPTGDVIGDSAKYDVENCLANKVDLSFSPSQSLPASHAHLRVTAAPQSVCALRAVDQSVLLMKPDAELSASSVYNLLPEKDLTGFPGPLNDQDDEDCINRHNVYINGITYTPVSSTNEKDMYSFLEDMGLKAFTNSKIRKPKMCPQLEQYEMHGPSELEGRGSIPENFFGVEGEGEGEGKEEEGLGSVEEPHTKLRKYFPETWIWDLVVVNSAGVAEVGVTVPDTITEWKAGAFCLSEDAGLGISSTASLRAFQPFFVELTMPYSVIRGEAFTLKATVLNYLPKCIRVSVQLEASPAFLAVPVEKEQAPHCICANGRQTVSWAVTPKSLGNVNFTVSAEALESQELCGTEVPSVPEHGRKDTVIKPLLVEPEGLEKETTFNSLLCPSGGEVSEELSLKLPPNVVEESARASVSVLGDILGSAMQNTQNLLQMPYGCGEQNMVLFAPNIYVLDYLNETQQLTPEIKSKAIGYLNTGYQRQLNYKHYDGSYSTFGERYGRNQGNTWLTAFVLKTFAQARAYIFIDEAHITQALIWLSQRQKDNGCFRSSGSLLNNAIKGGVEDEVTLSAYITIALLEIPLTVTHPVVRNALFCLESAWKTAQEGDHGSHVYTKALLAYAFALAGNQDKRKEVLKSLNEEAVKKDNSVHWERPQKPKAPVGHFYEPQAPSAEVEMTSYVLLAYLTAQPAPTSEDLTSATNIVKWITKQQNAQGGFSSTQDTVVALHALSKYGAATFTRTGKAAQVTIQSSGTFSSKFQVDNNNRLLLQQVSLPELPGEYSMKVTGEGCVYLQTSLKYNILPEKEEFPFALGVQTLPQTCDEPKAHTSFQISLSVSYTGSRSASNMAIVDVKMVSGFIPLKPTVKMLERSNHVSRTEVSSNHVLIYLDKVSNQTLSLFFTVLQDVPVRDLKPAIVKVYDYYETDEFAIAEYNAPCSKDLGNADYKDDDDKGASHHHHHH

Experiments:
Experiment in all cases: cell-based or functional assay
MMP1 = biological target: T1, MMP1
Cathepsin G = biological target: T2, Cathepsin G
Elastase = biological target: Elastase

Binder | Protease Inhibition (% of WT) (MMP1) | Protease Inhibition (% of WT) (Cathepsin G) | Protease Inhibition (% of WT) (Elastase)
B1 | 400 % of WT | 200 % of WT | 200 % of WT
B2 | 350 % of WT | 300 % of WT | 200 % of WT
